Experiments:
Experiment in all cases: flow cytometry on transfected HEK293T cells
[1] = biological target: T1, CLEC14A^C103S (GFP tag, expressed in HEK293T) (human, UniProt Q86T13 22-490)
T1 construct: not shown: C-terminal GFP tag from vector pEGFP-N1
T1 sequence: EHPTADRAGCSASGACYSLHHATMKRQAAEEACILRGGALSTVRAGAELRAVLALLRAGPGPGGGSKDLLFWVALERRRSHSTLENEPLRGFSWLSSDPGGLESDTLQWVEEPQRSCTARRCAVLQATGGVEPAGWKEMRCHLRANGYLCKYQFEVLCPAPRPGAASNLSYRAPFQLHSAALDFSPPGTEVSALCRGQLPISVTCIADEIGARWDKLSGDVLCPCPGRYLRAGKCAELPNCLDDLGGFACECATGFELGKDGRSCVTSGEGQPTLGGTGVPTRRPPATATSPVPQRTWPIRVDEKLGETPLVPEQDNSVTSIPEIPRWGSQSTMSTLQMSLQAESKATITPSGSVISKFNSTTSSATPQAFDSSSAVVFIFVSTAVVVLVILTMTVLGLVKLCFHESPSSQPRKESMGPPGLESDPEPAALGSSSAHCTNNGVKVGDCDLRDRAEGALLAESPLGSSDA

[2] = biological target: T2, CLEC14A^C138S (GFP tag, expressed in HEK293T) (human, UniProt Q86T13 22-490)
T2 construct: not shown: C-terminal GFP tag from vector pEGFP-N1
T2 sequence: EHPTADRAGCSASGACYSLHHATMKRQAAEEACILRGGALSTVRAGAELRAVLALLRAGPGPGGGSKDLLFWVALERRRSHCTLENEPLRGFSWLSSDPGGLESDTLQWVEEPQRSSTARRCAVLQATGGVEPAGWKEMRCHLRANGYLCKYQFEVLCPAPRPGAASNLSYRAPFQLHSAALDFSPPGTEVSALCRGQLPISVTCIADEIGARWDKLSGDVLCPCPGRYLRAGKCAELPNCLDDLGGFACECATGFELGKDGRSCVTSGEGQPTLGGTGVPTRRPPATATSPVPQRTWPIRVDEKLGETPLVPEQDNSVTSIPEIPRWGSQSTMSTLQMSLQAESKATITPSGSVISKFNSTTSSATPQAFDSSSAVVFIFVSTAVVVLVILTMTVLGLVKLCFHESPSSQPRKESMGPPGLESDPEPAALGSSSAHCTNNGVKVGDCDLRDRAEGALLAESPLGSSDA

[3] = biological target: T3, CD93^C104S (GFP tag, expressed in HEK293T) (human, UniProt Q9NPY3 22-652)
T3 construct: not shown: C-terminal GFP tag from vector pEGFP-N1
T3 sequence: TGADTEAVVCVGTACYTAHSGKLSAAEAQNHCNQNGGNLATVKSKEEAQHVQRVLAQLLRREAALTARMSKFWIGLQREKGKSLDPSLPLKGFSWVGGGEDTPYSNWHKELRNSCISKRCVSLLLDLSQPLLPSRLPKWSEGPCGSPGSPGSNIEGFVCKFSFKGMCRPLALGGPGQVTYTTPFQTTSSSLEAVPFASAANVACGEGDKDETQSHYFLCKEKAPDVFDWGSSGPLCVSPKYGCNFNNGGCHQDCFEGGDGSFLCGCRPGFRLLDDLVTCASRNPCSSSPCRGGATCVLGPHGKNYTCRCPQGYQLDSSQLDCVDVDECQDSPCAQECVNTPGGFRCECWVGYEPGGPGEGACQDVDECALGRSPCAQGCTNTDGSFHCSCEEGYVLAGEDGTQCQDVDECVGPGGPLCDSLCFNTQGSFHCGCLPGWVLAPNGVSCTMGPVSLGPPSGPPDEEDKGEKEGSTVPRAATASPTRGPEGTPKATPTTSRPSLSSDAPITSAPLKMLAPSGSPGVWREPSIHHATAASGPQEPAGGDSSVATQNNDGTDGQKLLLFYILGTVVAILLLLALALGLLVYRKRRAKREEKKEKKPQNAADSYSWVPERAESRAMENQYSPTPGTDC

[4] = biological target: T4, CD93^C136S (GFP tag, expressed in HEK293T) (human, UniProt Q9NPY3 22-652)
T4 construct: not shown: C-terminal GFP tag from vector pEGFP-N1
T4 sequence: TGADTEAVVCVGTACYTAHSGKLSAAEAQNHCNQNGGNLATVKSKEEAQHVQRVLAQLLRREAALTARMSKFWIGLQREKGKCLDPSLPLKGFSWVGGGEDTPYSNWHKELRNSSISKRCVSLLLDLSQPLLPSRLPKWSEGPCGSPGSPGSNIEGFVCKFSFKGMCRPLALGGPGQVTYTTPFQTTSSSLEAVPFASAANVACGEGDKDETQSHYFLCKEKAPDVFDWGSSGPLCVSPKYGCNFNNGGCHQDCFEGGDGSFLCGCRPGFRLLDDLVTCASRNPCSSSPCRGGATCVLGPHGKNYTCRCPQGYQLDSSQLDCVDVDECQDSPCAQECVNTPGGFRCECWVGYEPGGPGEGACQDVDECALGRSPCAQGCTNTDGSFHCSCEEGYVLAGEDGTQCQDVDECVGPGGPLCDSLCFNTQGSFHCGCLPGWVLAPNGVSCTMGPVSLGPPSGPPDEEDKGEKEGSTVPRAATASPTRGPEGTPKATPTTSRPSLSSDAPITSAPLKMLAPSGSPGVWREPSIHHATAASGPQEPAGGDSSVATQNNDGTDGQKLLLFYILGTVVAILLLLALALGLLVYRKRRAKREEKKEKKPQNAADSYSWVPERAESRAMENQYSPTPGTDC

Measured: binding result

B1: biotinylated MMRN2^495-674 (human, expressed in E. coli with a His tag and a BirA tag) (ligand)
chain: QKLYLDLDVIREGQRDATRALEETQVSLDERRQLDGSSLQALQNAVDAVSLAVDAHKAEGERARAATSRLRSQVQALDDEVGALKAAAAEARHEVRQLHSAFAALLEDALRHEAVLAALFGEEVLEEMSEQTPGPLPLSYEQIRVALQDAASGLQEQALGWDELAARVTALEQASEPPRP
modifications: biotin on the BirA tag
notes: Used for staining of transfected HEK293T cells in flow cytometry, detected with streptavidin-PE; not shown: BirA tag and His tag (vector pET23a)
no binding (tested: 20 µg/mL): all assays above
